Reference: patent US20230414780A1 (VECT HORUS, published 2023)
Substitutions are numbered along the chain they refer to.

B1: 13C3-HC-C5h9 (antibody)
heavy: QVQLQQSGPELVRPGVSVKISCKGSGYTFTDYAMHWVKQSHAKSLEWIGVISTKYGKTNYNQKFKGKATMTVDKSSSTAYMELARLTSEDSAIYYCARGDDGYSWGQGTSVTVSSAKTTPPSVYPLAPGSAAQTNSMVTLGCLVKGYFPEPVTVTWNSGSLSSGVHTFPAVLQSDLYTLSSSVTVPSSTWPSETVTCNVAHPASSTKVDKKIVPRDCGCKPCICTVPEVSSVFIFPPKPKDVLTITLTPKVTCVVVDISKDDPEVQFSWFVDDVEVHTAQTQPREEQFNSTFRSVSELPIMHQDWLNGKEFKCRVNSAAFPAPIEKTISKTKGRPKAPQVYTIPPPKEQMAKDKVSLTCMITDFFPEDITVEWQWNGQPAENYKNTQPIMDTDGSYFVYSKLNVQKSNWEAGNTFTCSVLHEGLHNHHTEKSLSHSPGGGGGMAEVQLVESGGGVVQPGGSLRLSCAASGTDFSINFIRWYRQAPGKGLEFVAGFTATGNTNYADSVKGRFTISRDNAKNTLYLQMNSLRPEDTAVYYCYMLDKWGQGTQVTVSSAAA
light: DVVMTQTPLSLPVSLGDQASISCRSGQSLVHSNGNTYLHWYLQKPGQSPKLLIYTVSNRFSGVPDRFSGSGSGSDFTLKISRVEAEDLGVYFCSQNTFVPWTFGGGTKLEIKRADAAPTVSIFPPSSEQLTSGGASVVCFLNNFYPKDINVKWKIDGSERQNGVLNSWTDQDSKDSTYSMSSTLTLTKDEYERHNSYTCEATHKTSTSPIVKSFNRNEC
B2: 13C3-HC-C5h24 (antibody)
heavy: B1 heavy with V507M
light: B1 light
B3: 13C3-HC-C5h20 (antibody)
heavy: B1 heavy with T521A, L522V
light: B1 light
notes: homodimeric fusion, bivalent for TfR
B4: VHH B (B8) (VHH)
VHH: EVQLVESGGGVVQPGGSLRLSCAASGEIFSINFMRWYRQAPGKQREWVAGFTRDGSTNYPDSAKGRFTISRDNAKNTVYLQIDSLKPEDTAVYYCYMLDTWGQGTQVTVSS
B5: VHH B-siGFPst1 bioconjugate (VHH)
VHH: B4 VHH
modifications: siGFPst1 siRNA linked to the Gln of the C-terminal Q-tag
notes: not shown: C-terminal tag with His tag and Q-tag
B6: B8-MALAT1-ASO (VHH, not shown: small tags and cut ends)
VHH: B4 VHH
modifications: MALAT1 gapmer antisense oligonucleotide linked to the VHH
notes: also called VHH-MALAT1-ASO wherein VHH is B8
B7: C5^h18 (VHH)
VHH: EVQLVESGGGVVQPGGSLKLSCVASGTDFSINFIRWYRQAPGKGLEFVAGFTATGNTNYADSVKGRFTISRDNAKNTLYLQMNSLRPEDTAVYYCYMLDKWGQGTQVTVSS
B8: C5h18-NT(8-13) (VHH)
VHH: B7 VHH
B9: C5^h19 (VHH)
VHH: B7 VHH with K19R, V23A, G44Q, L45R
B10: VHH A13 (C5^V13) (VHH)
VHH: B7 VHH with G44Q, L45R, T52S, V63M, A74T, T77A, L78V, M82I, N83D, R86K
B11: VHH A12 (C5^V12) (VHH)
VHH: B7 VHH with G44Q, L45R, F51I, V63M, A74T, T77A, L78V, M82I, N83D, R86K
B12: C12b-NT(8-13) (VHH)
VHH: QVQLVQSGGGLVQPGGSLRLSCAASGFTFSAYAMSWVRQAPGKGRELVASISRTGDGTYYADGMKGRFTISRDNAENTVSLQINSLKPEDTAIYYCGAGINPTKYWGQGTQVTVSS

Tests used:
[1] = target: T1, mouse transferrin receptor (mTfR) fused to EGFP, on CHO cells (mouse, UniProt Q62351 1-763); assay: cell-based flow cytometry assay on mTfR-expressing cells (as in Example XI)
T1 construct: whole, on cells; also called mouse TfR; CHO-mTfR-EGFP; not shown: EGFP

[2] = target: T1, mouse transferrin receptor (mTfR) fused …; assay: cell-based flow cytometry assay on mTfR-expressing cells (as in Example XI); Kd/app
[3] = target: T2, murine TfR expressed by murine neuroblastoma Neuro-2a cells (mouse, UniProt Q62351 1-763); assay: competition with C5-Alexa680 (100 nM) on living Neuro-2a cells, 3 hrs at 37 C, flow cytometry; Ki/app, mean ± SD
T2 construct: whole, on cells; also called mTfR (N2a cells)
Description: (§1) The binding of VHH-Oligo and VHH-hFc-Oligo conjugates to mTfR was evaluated using a competition assay on living cells expressing the receptor of interest, namely murine neuroblastoma Neuro-2a cells (N2a). N2a cells were grown in Dulbecco's Modified Eagle Medium (DMEM) GlutaMAX supplemented with 10% v/v FBS in 5% CO₂ at 37° C. Cells were seeded two days before experiments in 96-well plates at a density of 50.000 cells/well. […] Resuspended cells were transferred in a 96-deepwell plate (V-bottom) containing 1% fetal bovine serum (FBS)/0.02% sodium azide in phosphate-buffered saline (PBS) and then centrifuged for 5 min at 2000 rpm at 4° C. After removing the supernatant, 5 mM EDTA in D-PBS and 4% paraformaldehyde (PFA) (v/v 1:1) were added into wells to fix cells for 15 min at room temperature. PFA was removed by centrifugation (5 min, 3000 rpm, 4° C.) and cells were resuspended with 5 mM EDTA in D-PBS. Then the cellular A680-associated fluorescence signal was quantified using an Attune™ NxT flow cytometer (Thermo Fisher Scientific) equipped with Attune™ NxT v3.1.2. Experimental data (experimental triplicates) were fitted with GraphPad Prism® software using a nonlinear fit to determine the apparent Ki inhibition constants.

[4] = target: T1, mouse transferrin receptor (mTfR) fused …; assay: apparent Kd, flow cytometry, CHO cells
How it was run: (§2)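 CHO cells expressing TfR-EGFP fusions, blocked in PBS/BSA 2%, then incubated with increasing VHH concentrations for 1 hr at 4° C. Bound VHH detected via anti-6His antibody and Alexa647 secondary, cells PFA-fixed, read by flow cytometry. Apparent Kd from nonlinear fit.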

[5] = target: T3, human transferrin receptor (hTfR) fused to EGFP, on CHO cells (human, UniProt P02786 1-760); assay: apparent Kd, flow cytometry, CHO cells
T3 construct: whole, on cells; also called human TfR; CHO-hTfR-EGFP; not shown: EGFP from pEGFP-C1 vector, fused to the N-terminal (intracellular) end of hTfR
How it was run: as §2

[6] = target: T4, rhesus monkey transferrin receptor (rhTfR) fused to EGFP, on CHO cells (rhesus monkey); assay: apparent Kd, flow cytometry, CHO cells
T4 construct: whole, on cells; also called rhesus monkey TfR
How it was run: as §2

[7] = target: T2, murine TfR expressed by murine …; assay: competition with the fluorescent reference VHH on Neuro-2a cells as in FIG. 25; Ki/app on mTfR, free VHH
Description: as §1

[8] = target: T3, human transferrin receptor (hTfR) fused …; assay: flow cytometry on CHO-hTfR-EGFP cells, 1 hr at 4 C, anti-6His + Alexa647 anti-mouse; ratio to background fluorescence
Description: FIGS. 15A-15H: In vitro gene silencing activity of VHH-siGFPst1 bioconjugates. […] CHO-hTfR-EGFP cells were incubated 1 hr at 4° C. with various concentrations of the indicated compounds. Detection of VHHs was performed using a primary mouse anti-6His (1/1000) and an Alexa647-conjugated anti-mouse secondary antibody (1/400). Measurements of cell-surface signal associated to VHH were performed using flow cytometry. The results are expressed as the ratio of Alexa647-associated fluorescence intensity of test compounds to that of background fluorescence. […] The total fluorescence associated to the EGFP protein was then quantified using flow cytometry and rationalized to that of untreated (control) cells (set at 100%) *** p≤0.001. […] The total fluorescence associated with the EGFP protein was then quantified using flow cytometry and rationalized to that of untreated (control) cells (set at 100%). […] CHO-hTfR-EGFP cells were incubated with the indicated compounds at 1 μM during 120 hrs at 37° C. Data were processed and analyzed as described in (B). *** p≤0.001 vs. untreated cells. […] The total fluorescence associated with the EGFP protein was then quantified using flow cytometry and rationalized to that of untreated (control) cells (set at 100%).

[9] = target: T5, mouse TfR ectodomain fused to a mouse IgG1 Fc fragment (mouse, UniProt Q62351 89-763); assay: SPR, at equilibrium
T5 construct: extracellular domain; not shown: mouse IgG1 Fc fragment
How it was run: (§3)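 TfR–mouse Fc fusions, produced in-house, captured on HC 1500M or CM5 chips either directly or via immobilized anti-mouse IgG. VHHs injected in single-cycle or multiple-cycle kinetic mode on Biacore T200.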

[10] = target: T6, human TfR ectodomain fused to a mouse IgG1 Fc fragment (human, UniProt P02786 89-760); assay: SPR, kinetic
T6 construct: extracellular domain; ectodomain fused to the N-terminal end of the Fc, made in-house; not shown: mouse IgG1 Fc fragment
How it was run: as §3

[11] = target: T7, rhesus monkey TfR ectodomain fused to a mouse IgG1 Fc fragment (rhesus monkey, UniProt I0FKY7 89-760); assay: SPR, kinetic
T7 construct: extracellular domain; not shown: mouse IgG1 Fc fragment
How it was run: as §3

[12] = target: T5, mouse TfR ectodomain fused to a mouse …; assay: SPR, kinetic
How it was run: as §3

[13] = target: T6, human TfR ectodomain fused to a mouse …; assay: SPR, at equilibrium
How it was run: as §3

[14] = target: T3, human transferrin receptor (hTfR) fused …; assay: apparent Kd, cell-based assay
[15] = target: T3, human transferrin receptor (hTfR) fused …; assay: apparent Kd, flow cytometry, CHO cells; remark: listed apart in the source
Description: All experiments were performed in 96 well plates using 2×10⁵ cells/well, at 4° C. with shaking. CHO cell lines stably expressing the hTfR or the mTfR fused to EGFP or CHO WT cells were saturated with PBS/BSA 2% solution during 30 min to avoid non-specific binding, followed by incubation with purified VHHs at concentrations ranging from 50 μM to 5 μM for 1 hr. After one wash in PBS/BSA 2%, cells were incubated for 1 hr with an anti-6His tag antibody (mouse), washed twice with PBS/BSA 2%, and incubated for 45 min with an Alexa647-conjugated anti-mouse secondary antibody. After two last washes in PBS/BSA 2%, cells were fixed by incubation for 15 min with PBS/PFA 2%, washed once with PBS and finally resuspended in PBS and stored at 4° C. Fluorescence levels were assessed using an Attune NxT Flow Cytometer (Thermo Fisher Scientific). […] No labeling of the CHO WT control cells was detected with all the tested VHHs (not shown). The VHH K_{d app} were calculated using GraphPad Prism software (FIG. 11-B; 12-B).

T6 sequence (P02786 89-760): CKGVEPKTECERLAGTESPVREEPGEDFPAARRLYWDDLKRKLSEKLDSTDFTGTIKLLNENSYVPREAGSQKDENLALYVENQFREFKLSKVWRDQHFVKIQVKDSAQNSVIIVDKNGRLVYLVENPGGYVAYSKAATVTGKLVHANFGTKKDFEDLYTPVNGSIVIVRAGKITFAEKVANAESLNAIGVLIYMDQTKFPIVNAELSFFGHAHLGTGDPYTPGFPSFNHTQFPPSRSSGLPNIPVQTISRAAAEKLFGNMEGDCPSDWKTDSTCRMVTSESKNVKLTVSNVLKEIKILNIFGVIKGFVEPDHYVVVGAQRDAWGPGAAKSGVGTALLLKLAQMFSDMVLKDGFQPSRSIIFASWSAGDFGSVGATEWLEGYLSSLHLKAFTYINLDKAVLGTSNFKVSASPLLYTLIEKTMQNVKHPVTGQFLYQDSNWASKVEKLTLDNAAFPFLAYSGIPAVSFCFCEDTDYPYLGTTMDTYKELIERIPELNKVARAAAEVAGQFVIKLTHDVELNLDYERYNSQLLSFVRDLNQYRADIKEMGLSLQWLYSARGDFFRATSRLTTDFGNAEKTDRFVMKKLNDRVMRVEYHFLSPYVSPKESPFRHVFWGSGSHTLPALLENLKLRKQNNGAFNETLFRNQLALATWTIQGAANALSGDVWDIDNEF
T3 sequence (P02786 whole entry, the tested form may be a part): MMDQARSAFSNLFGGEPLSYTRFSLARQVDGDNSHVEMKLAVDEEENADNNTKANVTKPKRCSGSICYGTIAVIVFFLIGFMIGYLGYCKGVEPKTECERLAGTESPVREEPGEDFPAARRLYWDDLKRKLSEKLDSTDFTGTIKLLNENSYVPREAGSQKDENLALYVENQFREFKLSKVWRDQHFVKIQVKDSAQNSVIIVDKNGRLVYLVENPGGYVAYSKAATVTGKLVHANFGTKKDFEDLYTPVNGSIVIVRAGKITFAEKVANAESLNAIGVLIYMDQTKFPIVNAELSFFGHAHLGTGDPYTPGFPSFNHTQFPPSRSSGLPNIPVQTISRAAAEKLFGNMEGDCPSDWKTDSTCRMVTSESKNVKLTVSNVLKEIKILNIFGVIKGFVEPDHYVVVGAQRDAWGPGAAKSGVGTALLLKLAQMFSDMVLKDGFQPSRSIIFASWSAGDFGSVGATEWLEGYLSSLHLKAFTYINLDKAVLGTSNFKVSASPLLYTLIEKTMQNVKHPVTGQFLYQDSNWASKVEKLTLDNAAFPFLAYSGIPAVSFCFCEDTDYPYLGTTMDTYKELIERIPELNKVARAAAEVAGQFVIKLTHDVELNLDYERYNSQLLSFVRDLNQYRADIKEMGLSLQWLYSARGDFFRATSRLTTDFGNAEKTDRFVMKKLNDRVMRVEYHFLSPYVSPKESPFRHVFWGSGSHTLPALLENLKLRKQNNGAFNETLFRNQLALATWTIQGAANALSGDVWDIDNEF
T1 sequence (Q62351 whole entry, the tested form may be a part): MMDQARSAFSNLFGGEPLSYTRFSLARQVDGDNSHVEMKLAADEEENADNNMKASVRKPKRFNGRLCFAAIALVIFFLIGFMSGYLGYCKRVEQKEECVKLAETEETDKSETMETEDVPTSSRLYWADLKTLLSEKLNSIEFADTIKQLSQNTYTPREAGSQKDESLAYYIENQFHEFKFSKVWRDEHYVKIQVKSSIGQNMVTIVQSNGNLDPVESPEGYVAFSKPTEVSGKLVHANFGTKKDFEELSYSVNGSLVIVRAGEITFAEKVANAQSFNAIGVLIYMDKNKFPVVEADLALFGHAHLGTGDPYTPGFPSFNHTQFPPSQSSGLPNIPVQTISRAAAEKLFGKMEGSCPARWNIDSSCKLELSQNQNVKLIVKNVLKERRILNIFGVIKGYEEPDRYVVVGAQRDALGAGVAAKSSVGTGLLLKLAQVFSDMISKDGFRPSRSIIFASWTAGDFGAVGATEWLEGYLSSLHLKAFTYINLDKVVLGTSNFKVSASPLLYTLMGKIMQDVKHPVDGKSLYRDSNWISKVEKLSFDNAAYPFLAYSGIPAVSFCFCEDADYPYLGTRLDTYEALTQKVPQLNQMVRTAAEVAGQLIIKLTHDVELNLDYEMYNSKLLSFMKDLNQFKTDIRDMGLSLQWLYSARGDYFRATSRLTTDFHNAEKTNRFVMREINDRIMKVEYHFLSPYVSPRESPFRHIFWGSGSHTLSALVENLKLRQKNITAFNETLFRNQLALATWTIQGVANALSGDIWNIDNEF
T2 sequence (Q62351 whole entry): as the sequence (Q62351 whole entry, the tested form may be a part) above
T5 sequence (Q62351 89-763): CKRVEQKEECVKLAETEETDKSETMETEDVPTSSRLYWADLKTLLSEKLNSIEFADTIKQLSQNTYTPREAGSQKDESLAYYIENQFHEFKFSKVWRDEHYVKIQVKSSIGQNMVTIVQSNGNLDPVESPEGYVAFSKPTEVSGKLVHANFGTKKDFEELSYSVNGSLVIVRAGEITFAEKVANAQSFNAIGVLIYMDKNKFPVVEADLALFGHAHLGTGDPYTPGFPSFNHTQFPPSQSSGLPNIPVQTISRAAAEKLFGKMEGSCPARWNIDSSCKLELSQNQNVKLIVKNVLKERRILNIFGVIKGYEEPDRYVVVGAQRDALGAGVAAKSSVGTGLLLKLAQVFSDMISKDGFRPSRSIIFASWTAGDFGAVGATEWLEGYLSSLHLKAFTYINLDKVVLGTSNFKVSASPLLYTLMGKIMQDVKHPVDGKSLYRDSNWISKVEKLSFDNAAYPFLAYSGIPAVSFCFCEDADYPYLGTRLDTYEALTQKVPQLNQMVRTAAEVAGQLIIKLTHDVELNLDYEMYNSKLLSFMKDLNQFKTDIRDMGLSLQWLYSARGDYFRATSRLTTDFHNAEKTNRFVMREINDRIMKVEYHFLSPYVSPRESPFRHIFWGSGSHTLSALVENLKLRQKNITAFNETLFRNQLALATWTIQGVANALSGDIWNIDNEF

Binder | Kd [4] | Kd [5] | Kd [6] | Ki [7] | Kd [9] | Kd [10] | koff [10] | kon [10] | Kd [12] | koff [12] | kon [12] | also measured
B1 |  |  |  |  |  |  |  |  |  |  |  | Bmax [1]: 531 RFI; Kd [2]: 15.8 nM
B2 |  |  |  |  |  |  |  |  |  |  |  | Bmax [1]: 781 RFI; Kd [2]: 20.2 nM
B3 |  |  |  |  |  |  |  |  |  |  |  | Bmax [1]: 1470 RFI; Kd [2]: 22.3 nM
B4 | 7.5 nM | 1.7 nM | 2.2 nM | 56.2 nM | 37.5 nM | 0.0559 nM | 3.06e-05 s⁻¹ | 677000 M⁻¹ s⁻¹ | 27 nM | 0.0243 s⁻¹ | 1.23e+06 M⁻¹ s⁻¹ | Ki [3]: 56.2 nM; EC50 (read off the curve) [8]: ~4 nM; Kd [11]: 0.0951 nM; koff [11]: 9.54e-05 s⁻¹; kon [11]: 1e+06 M⁻¹ s⁻¹
B5 |  |  |  |  |  |  |  |  |  |  |  | EC50 (read off the curve) [8]: ~3 nM
B6 |  |  |  |  |  |  |  |  |  |  |  | Ki [3]: 60.9 nM
B7 | 834 nM | 11 nM | 957 nM | 1480 nM | 300 nM | 30.9 nM | 0.013 s⁻¹ | 462000 M⁻¹ s⁻¹ | 336 nM | 0.235 s⁻¹ | 816000 M⁻¹ s⁻¹ | Kd [13]: 27.3 nM
B8 |  |  |  |  |  |  |  |  |  |  |  | Kd [14]: 16.8 nM
B9 | 1030 nM | 5.4 nM | 521 nM | 7600 nM | 2750 nM | 16.3 nM | 0.00904 s⁻¹ | 624000 M⁻¹ s⁻¹ | 643 nM | 0.00825 s⁻¹ | 12800 M⁻¹ s⁻¹ | Kd [13]: 13.2 nM
B10 | 187 nM | 3.5 nM | 28 nM | 1320 nM | 113 nM | 0.357 nM | 0.000392 s⁻¹ | 1.14e+06 M⁻¹ s⁻¹ | 78.9 nM | 0.0182 s⁻¹ | 231000 M⁻¹ s⁻¹ | 
B11 |  |  |  |  |  |  |  |  |  |  |  | Kd [15]: 363 nM
B12 |  |  |  |  |  |  |  |  |  |  |  | Kd [14]: 1860 nM
